Results reported in publication PMC6604950, “The ChlD subunit links the motor and porphyrin binding subunits of magnesium chelatase” (Biochemical Journal, 2019).

T1: ChlH (purified recombinant, Synechocystis) (Synechocystis sp. PCC 6803, UniProt P73020 1-1331, labelled with NHS-NT647 dye in the MST experiments; activated with EDC/NHS in the cross-linking experiment)
T1 construct: Magnesium chelatase subunit ChlH (~150 kDa), Synechocystis sp; PCC 6803; also called labelled ChlH
T1 sequence (looked up): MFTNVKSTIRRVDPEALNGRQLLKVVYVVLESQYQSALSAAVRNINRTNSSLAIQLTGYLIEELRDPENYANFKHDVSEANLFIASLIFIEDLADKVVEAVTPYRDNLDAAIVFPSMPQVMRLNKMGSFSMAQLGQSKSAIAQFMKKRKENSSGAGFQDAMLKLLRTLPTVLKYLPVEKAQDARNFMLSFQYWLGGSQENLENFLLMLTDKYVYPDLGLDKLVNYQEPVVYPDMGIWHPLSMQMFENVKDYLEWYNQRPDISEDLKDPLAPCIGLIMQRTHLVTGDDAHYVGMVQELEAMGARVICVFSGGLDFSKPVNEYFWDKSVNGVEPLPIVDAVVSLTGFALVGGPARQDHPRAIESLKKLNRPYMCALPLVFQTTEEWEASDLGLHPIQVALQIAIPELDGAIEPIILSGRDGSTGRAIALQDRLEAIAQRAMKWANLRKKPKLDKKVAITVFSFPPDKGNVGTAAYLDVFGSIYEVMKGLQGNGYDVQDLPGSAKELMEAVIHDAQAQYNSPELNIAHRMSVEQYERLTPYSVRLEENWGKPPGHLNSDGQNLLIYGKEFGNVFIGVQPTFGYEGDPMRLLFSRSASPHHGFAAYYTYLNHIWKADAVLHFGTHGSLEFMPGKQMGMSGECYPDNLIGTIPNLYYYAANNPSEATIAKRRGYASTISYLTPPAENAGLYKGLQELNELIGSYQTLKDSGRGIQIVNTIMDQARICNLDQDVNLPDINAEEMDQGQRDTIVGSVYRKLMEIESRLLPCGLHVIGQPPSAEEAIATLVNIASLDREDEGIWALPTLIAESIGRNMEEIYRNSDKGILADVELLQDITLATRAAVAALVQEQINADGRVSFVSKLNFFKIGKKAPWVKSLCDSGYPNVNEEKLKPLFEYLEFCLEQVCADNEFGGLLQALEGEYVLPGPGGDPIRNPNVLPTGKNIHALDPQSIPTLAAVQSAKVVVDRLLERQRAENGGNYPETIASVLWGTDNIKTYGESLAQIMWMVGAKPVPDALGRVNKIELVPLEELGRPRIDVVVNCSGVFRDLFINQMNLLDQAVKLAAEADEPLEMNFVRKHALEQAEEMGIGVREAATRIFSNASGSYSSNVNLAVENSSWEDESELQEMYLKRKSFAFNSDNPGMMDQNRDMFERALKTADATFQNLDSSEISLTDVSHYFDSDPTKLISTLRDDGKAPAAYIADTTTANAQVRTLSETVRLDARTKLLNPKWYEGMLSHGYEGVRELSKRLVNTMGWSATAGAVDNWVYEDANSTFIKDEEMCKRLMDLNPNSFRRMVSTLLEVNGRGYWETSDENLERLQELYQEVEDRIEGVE


Columns and labels:
[1] = target: T1, ChlH (purified recombinant, …); test: MST; ChlD (or variant) titrated into 20 nM NT647-labelled ChlH; 50 mM Tris/NaOH, 0.2% Pluronic F-127, pH 7.8, without Mg2+; single-site model; Kd is an empirical description over all oligomeric states of ChlD; settings: both partners purified
[2] = target: T1, ChlH (purified recombinant, …); test: MST; ChlD (or variant) titrated into 20 nM NT647-labelled ChlH; 50 mM Tris/NaOH, 0.2% Pluronic F-127, pH 7.8, with 10 mM Mg2+; single-site model; Kd is an empirical description over all oligomeric states of ChlD; settings: both partners purified
[3] = target: the molecule itself; test: MST; control ChlD-ChlD titration (Supplementary Figure S3); monomer to dimer
[4] = target: T1, ChlH (purified recombinant, …); test: cell-based or functional assay

Binder	Kd [1] [nM]	Kd [2] [nM]	magnesium chelatase activity, rate relative to the wild-type protein [4] [%]	Kd [3] [nM]	stoichiometry N [3]
ChlD wild type (purified recombinant, Synechocystis) (natural protein, labelled with NHS-NT647 dye where it was the labelled partner in MST (ChlD-ChlD titration), Magnesium chelatase subunit ChlD (~75 kDa), Synechocystis sp; PCC 6803; also called WT ChlD) not shown	2100	331		296	2
ChlD QuinE (E510Q/E513Q/E600T/E603P/E605T) (natural protein, Magnesium chelatase subunit ChlD, Synechocystis sp; also called quintuplet mutant of ChlD; source: E. coli, purified (as described previously)) not shown	512	339			
ChlD S489A (natural protein, Magnesium chelatase subunit ChlD, Synechocystis sp; PCC 6803, MIDAS motif point mutant; also called MIDAS mutant; source: E. coli, purified as wild type) not shown	3210	1980			
ChlD D487E (natural protein, Magnesium chelatase subunit ChlD, Synechocystis sp; PCC 6803, MIDAS motif point mutant; also called MIDAS mutant; source: E. coli, purified as wild type) not shown	1490	842			

Continued, in another order:

Kd [1] [nM]	Kd [2] [nM]	magnesium chelatase activity, rate relative to the wild-type protein [4] [%]	Binder	Kd [3] [nM]	stoichiometry N [3]
5930	14600		ChlD truncation A (AAA+ domain alone) (domain or fragment) not shown		
351	147		ChlD S491A (natural protein, Magnesium chelatase subunit ChlD, Synechocystis sp; PCC 6803, MIDAS motif point mutant; also called MIDAS mutant; source: E. coli, purified as wild type) not shown		
988	481	~5	ChlD S554R (natural protein, Magnesium chelatase subunit ChlD, Synechocystis sp; PCC 6803, MIDAS motif point mutant; also called type II MIDAS mutant; source: E. coli, purified as wild type) not shown		
6760	10500		ChlD truncation B (AAA+ domain with the polyproline region) (domain or fragment) not shown		
